Assay results reported in the nanobody polyreactivity screen of Harvey et al. (2022).

Assay: yeast display, Sf9 membrane polyspecificity reagent, FACS + sequencing; frameworks hold sequencing errors
How it was run: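 Polyreactivity labels are assigned by the sorting gate from which each nanobody was recovered. The gates were low and high (top ~1%), set on anti-HA fluorescence for expression and streptavidin fluorescence for reagent binding. Before sorting, galactose-induced (36–48 hours) yeast display cells were stained for 1 hour at 4 °C with 10% biotinylated, detergent-solubilized Sf9 membrane reagent.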

Sequence	polyreactivity (PSR sort gate)
QVQLVESGGGLVQAGGSLRLSCAASGSLFTGYAMGWYRQAPGKERELVAAISSSGSTTYYADSVKGRFTISRDNAKNTVYLQMNSLKPEDTAVYYCATRVNYGYYYWGQGSQVTVSS	high polyreactivity
QVQLVESGGGLVQAGGSLRLSCAASGSLFYFYAMGWYRQAPGKERELVAAISSGGSTYYADSVKGRFTISRDNAKNTVYLQMNSLKPEDTEVYYCAADSLYYRYDYWGQGTQVTVSS	low polyreactivity
QVQLVESGGGLVQAGGSLRLSCAASGSLVGYYPMGWYRQAPGKERELVAAISRSGGSTYYADSVKGRFSISRDNAKNTVYLQMNSLKPEDTAVYYCATSRVRSAGRDYWGQGTQVTVSS	high polyreactivity
QVQLVESGGGLVQAGGSLRLSCAASGSNFAKYAMGWYRQAPGKERELVAAISWRGGSTYYADSVKGRFTISRDNAKNTVYLQMNSLKPEDTAVYYCNKVGTWQGPYDYWGQGTQVTVSS	high polyreactivity
QVQLVESGGGLVQAGGSLRLSCAASGSNFDIYAMGWSRQAPGKERELVAAISWNGGDTTYADSVKGRFTISRDNAKNTVYLQLNSLKPEDTAVYYCAADLGYWVADYYWGQGTQVTVSS	high polyreactivity
QVQLVESGGGLVQAGGSLRLSCAASGSNFDVNAMGWYRQAPGKERELVAAISDSGGSTYYADSVKGRFTISRDNAKNTVYLQMNSLKPEDTAVYYCNADWSWYNYYDFDYWGQGTQVTVSS	low polyreactivity
QVQLVESGGGLVQAGGSLRLSCAASGSNFFFNTMGWYRQAPGKERELVAVITSGGSTYYADSVKGRFTISRDNAKNTVYLQMNSLKPEDTAVYYCAARYLPYRRIKYDYWGQGTQVTVSS	low polyreactivity
QVQLVESGGGLVQAGGSLRLSCAASGSNFFYYVMGWYRQAPGKERERVAAITRSTGSTYYADSVKGRFTISRDNAKNTVYLQMNSLIPEDTAVYSCAAEGPKWYYSGAFDYWGQGTQVTVSS	low polyreactivity
QVQLVESGGGLVQAGGSLRLSCAASGSNFGRYAMGWYRQAPGKESELVAAINDDSGRTYYADTVKGRFTISRDNAKNTVYLQMNSLKPEDTAVYYCAAYRISQGYSTYNYWGQGTQVTVSS	high polyreactivity
QVQLVESGGGLVQAGGSLRLSCAASGSNFGYYAMGWYRQAPGQERELVAAINSSGGSTYYADSVKGRFTISRDNAKNTVYLQMNSLKPEDTAVYYCAVRTRYKFNYWGQGTQVTVSS	low polyreactivity
QVQLVESGGGLVQAGGSLRLSCAASGSNFHQYAMGWYRQAPGKERELVAGINWSGGSTYYADSVKGRFTISRDNAKNTVYLQMNSLKPEDTAVYYCAKRYQLARAAYTGGYWGQGTQVTVSS	high polyreactivity
QVQLVESGGGLVQAGGSLRLSCAASGSNFKLYSMGWYRQAPGKERELVATIRWSGGSTYYADSVKGRFTISRDNAKNTVYLQMNSLKPEDTAVYYCAARRVRPNGYTSSPLDYWGQGTQVTVSS	high polyreactivity
QVQLVESGGGLVQAGGSLRLSCAASGSNFKNNAMGWYRQAPGKEREFVASISKRGGSTYYADSVKGRFTISRDNAKNTVYLQMNSLKPEDTEVYYCAKTYWSYGWSHGDYGEFDYWGQGTQVTVSS	high polyreactivity
QVQLVESGGGLVQAGGSLRLSCAASGSNFKWYAMGWYRQAPGKERELVSAISKSGGSTYYADSVKGRFTISRDNAKNTVYLQMNSLKPEDTAVYYCNAVYIGSRRRYEYDYWGQGTQVTVSS	high polyreactivity
QVQLVESGGGLVQAGGSLRLSCAASGSNFNRYAMGWYRQAPGKERELVAAITSTGGTNYADSVKGRFTISLDNAKNSVYLQMNSLKPEDTAVYYCAKRWLRWRSNYWGQVTQVTVSS	high polyreactivity
QVQLVESGGGLVQAGGSLRLSCAASGSNFNVYVMGWYRQAPGKERELVAAISWGDGSTSYADSVKGRFTISRDHAKNTVYLQMNSLKPEDTAVYYCNRRHSYPYDYWGQGTQVTVSS	high polyreactivity
QVQLVESGGGLVQAGGSLRLSCAASGSNFPHNAMGWYRQAPGKERELVAAITSSGGSTYYADSVKGRFTISRDNAKNTVYLQMNSLKPEDTAVYYCNKGKQRRRYNYWGQGTQVTVSS	high polyreactivity
QVQLVESGGGLVQAGGSLRLSCAASGSNFTFYTMGWYRQEPGKERELVAAINWSGSRTYYADSVKGRFTISRDNAKNTVYLQMNSLKPEDTAVYYCDAYYYTGPTTVESDYWGQGTQVTVSS	high polyreactivity
QVQLVESGGGLVQAGGSLRLSCAASGSNFTPNTMGWYRQAPAKERELVAGISSGDSTDYADSVKVRFTISRDNAKNTVYLQLNSLNPEDPAVYYCAAPWYGYYSRYDFYYWGQGTQVTVSS	low polyreactivity
QVQLVESGGGLVQAGGSLRLSCAASGSNFTYYALGWYRQAPGKERELVAAISKTGGRTYYADSVKGRFTISRDNAKNTVYLQMNSLKPEDTAVYYWAAEAPWQWYGWLRGYDFCGQGTQVTVSS	high polyreactivity
QVQLVESGGGLVQAGGSLRLSCAASGSNFVEYAMGWYRQAPGKERELVAGISSGGITSYADSVKGRFTISRDNAKNTVYLQMNSLKPEDTAVYYCATDPYKWFYSSYYLLQEVEYWGQGTQVTVSS	low polyreactivity
QVQLVESGGGLVQAGGSLRLSCAASGSNFVGYVMGRYRQAPGKERELVARIRWGGGRTYYADSVKGRFTISRDNAKNRVYLQMKSLKAEDTAVYYCAAVWRTRWAPGYYWGQGTQVTGSS	high polyreactivity

Sequence	polyreactivity (PSR sort gate)
QVQLVESGGGLVQAGGSLRLSCAASGSNFVKYVMGWYRQAPGKERELDAAITWRGGRTYYADSVKGRFTISRDNEKNTVYLQMNSLKPEDTAVYYCAAYDQSLYGRRYDYWGQGTQVTVSS	high polyreactivity
QVQLVESGGGLVQAGGSLRLSCAASGSNFYPYAMGWYRQAPGKERELVAAITGTGGSTYYADSVKGRFTISRDNAKNTVYLQMNSLKPEDTAVYYCATRRRYYYSRYNYWGQGTQVTVSS	high polyreactivity
QVQLVESGGGLVQAGGSLRLSCAASGSNIYHNTMGWYRQAPGKERELITYYADSVKGRFTISRDNAKNTVYLQMNSLKPEDTAVYYCAASPVSRTGPGDYDYWGQGTQVTVSS	low polyreactivity
QVQLVESGGGLVQAGGSLRLSCAASGSNSFLYTMRWYRQAPGKERELVAAITGSTASTYYADSVKGRFTISRDNAKNTVYLQMNSLKPEDSAVYYWAAYWYAEGYWVSRDYWGQGTQVTVSS	low polyreactivity
QVQLVESGGGLVQAGGSLRLSCAASGSNSRVNAMGWYRQATWKERELVASITKSTGSTYYADSVKGRFTISRDNAKNTVYLQMNSLKPEDTAVYYCAKAASYPVRAFYYWGLGTQVTVSS	high polyreactivity
QVQLVESGGGLVQAGGSLRLSCAASGSNSVYAMGWYRQAPGKERELVAAITISGGITYYADSVKGRFTIARDNAKNTVYLQMNSLKPEDTAVFYCNADQGSALRWSYDYWGQGTQVTVSS	low polyreactivity
QVQLVESGGGLVQAGGSLRLSCAASGSNYPPNAMGWYRQAPGKEREFVASITSSGGITNYADSVKGRFTISRDNAKNTVYLQMNSLKPVDTAVYYCAAKYYGGTRFRPYGYWGQGTQVTVSS	high polyreactivity
QVQLVESGGGLVQAGGSLRLSCAASGSNYYYYAIGWYRQAPGKERELVAAISWSGASTFYADSVKGRFTSSRDNAKNTVYLQMNSLKPEDTAVYYCAARYYGQPQYQPLYYWGQGTQVTVSS	high polyreactivity
QVQLVESGGGLVQAGGSLRLSCAASGSPFGYYAMGWYRQATGKERELVAAITRSGGRTYYADSVKGRFTISRDNAKNTVYLQMNSLKPEDTAVYYCAADRVRRPSPGGMDFWGQGTQVTVSS	high polyreactivity
QVQLVESGGGLVQAGGSLRLSCAASGSPFYAYAMGWYRQAPGKERQLVAAITYRDGRTNYADSVKGRFTISRDNAKNTVYLQMNSMKPEDTEVYYCARITGFTVRRYDYWGQGTQVTVSS	high polyreactivity
QVQLVESGGGLVQAGGSLRLSCAASGSSFGVNAMGWYRQAPGKERELVADISVRTDSTYYADSVKGRFTISRDNAKNTVYLQMNSLKPEDTAVYYCAAEVPYYYPGFYSYYDDSDYWGQGTQVTVSS	low polyreactivity
QVQLVESGGGLVQAGGSLRLSCAASGSSFGYNAMGWYRQAPGKERELVAAISRSGSTYYADSVKGRFTISRDKAKNTVYLHMNSLKPEDTAVYYCDARLWWTFCEYDYWGQGTQVTVSS	high polyreactivity
QVQLVESGGGLVQAGGSLRLSCAASGSSFNINAMGWYRQAPGKERELVAAISWSGDITYYADSVKGRFTISRDNAKNTVYLQLNSLKPEDTAVYYCNTDDPGNYWYAEYDYWGQGTQVTVSS	low polyreactivity
QVQLVESGGGLVQAGGSLRLSCAASGSSFPGYAMGWYRKAPGKERELVATSTYSDGSTYYADSVKGRFTISRDNAKNTVYLQMNSLKPEDTAVYYCAVTYWWYYGYDYWGQGTQVTVSS	low polyreactivity
QVQLVESGGGLVQAGGSLRLSCAASGSSFPYNTMGWYRQAPGKERELVAAISSGASTNYADSVKGRFTISRDNAKNTVYLQMNSLKPEDTAVYYCAAKYNANWDFDYWGQGTQVTVSS	low polyreactivity
QVQLVESGGGLVQAGGSLRLSCAASGSSFRGYAMGWSRQAPGKERELVAAISRSGGSTYYADSVKGRFTISRDNAKNTVYLQMKSLKPEDTAVYYCNARCSKRSSRGYDYWGQGTQVTVSS	high polyreactivity
QVQLVESGGGLVQAGGSLRLSCAASGSSFRYNAMGWYREAPGKEREMVAAITSSATSTYYADSVKGRFTISRDNAKNTVYLQMNSLKPEATAVYYCAAPPVYKWVSSRYDYWGQGTQVTVSS	low polyreactivity
QVQLVESGGGLVQAGGSLRLSCAASGSSFSGNFMGWYRQAPGKERELVAAISGRGGSTYYADSVKGRFTISRDNAKNTVYLQMNSLKPEDTAVYYCDAVYLKTYYWGLGTQVTVSS	high polyreactivity
QVQLVESGGGLVQAGGSLRLSCAASGSSFTPNVMGWYRQAPGKERELVAAISQSGGSTFYADSVKGRFTISRDNAKNTVYLQMNSLKPEDTAVYYCATEYYGPVYDLDYDYWGQGTQVTVSS	low polyreactivity
QVQLVESGGGLVQAGGSLRLSCAASGSSFTRYAMGWYRQAPGKERELVATINFSGDRTYYADSVKGRFTISRDNAKNTVYLQMNSLKPEDTAVYYCNNYSYQWPYRRFDYWGQGTLVTVSS	high polyreactivity
QVQLVESGGGLVQAGGSLRLSCAASGSSFWYNAMGWYRQAPGKERELVATISSRGDGTYYADSVKGRFTISRDNAKNTVYLQMNSLKPEDTAVYYCNKYRQQGWEFDYWGQGTQVTVSS	high polyreactivity
